Tests used:
[1] = Stability of IRA following IN delivery (TCA acid precipitation of brain, olfactory bulb, serum) in CD-1 mice; conditions: mouse, in vivo
Method: Blood was centrifuged at 3200 xg for 10 min. Serum (50 µl) was combined with 250 µl of BSA/LR, then combined with 300 µl of 30% TCA. Tissues were homogenized in 0.6 ml of 1% BSA/LR solution using a bead beater for 30 s at 4800 rpm twice on ice. […] Equal parts supernatant (300 µl) was mixed with an equal volume of 30% TCA. Serum and brain acid precipitated samples were centrifuged at 5400 xg for 10 min. The supernatant (S) was transferred to a new tube, leaving behind the pellet (P). The final S and P fractions for serum, olfactory bulb, and whole brain were counted separately, and the percentage of radioactivity was calculated using.
%Precip = 100 x (P)/(S + P) as described.
All biological samples were corrected for processing degradation by dividing their values by this processing control (PCon) value and multiplying by 100.

[2] = mouse, in vivo
Text: Initial distribution studies used male and female CD-1 mice (8–10 weeks old) purchased from Charles River Laboratories (Seattle, WA). Follow-up studies performed in male and female hemizygous APP/PS1 mice and WT littermates on a C57BL/6J background (Cat 034832-JAX) were purchased from the Mutant Mouse Resource & Research Centers (MMRRC-NIH) at approximately 2 months of age.
IRA administration followed the IN protocol outlined in Rhea et al.. Mice were anesthetized with 40% urethane intraperitoneally. […] Delicate delivery with negligible force was necessary to prevent injuring the turbinates or penetrating the cribriform plate. Tips were also examined for the presence of blood to ensure no cribriform plate rupture took place. Mice remained in the supine state for a duration of at least 30 s before being placed onto the left side.
Collection of blood occurred from the right carotid artery, and the whole brain and olfactory bulbs (Olf) were removed at 5, 15, 30, and 60 min time points after IN administration. […] Radioactivity levels were calculated for the whole brain by combining the radioactivity of each brain region and dividing by the total weights. The same was done for the neocortex (Crtx) by combining radioactivity and weights for the FC, PC, and OC. […] A 50 µl aliquot of the serum was then collected for measurement of radioactivity. Radioactivity amounts for each individual brain region, olfactory bulb, and serum were measured in a Wizard2 Automatic Gamma Counter (PerkinElmer, Waltham, MA) for 30 min. ^14C-DA5-CH samples were solubilized with Solvable (Sigma), transferred to scintillation vials containing Ecoscint (National Diagnostics) and ^14C was measured in a beta counter (TriCarb 3110TR, Perkin-Elmer). Radioactivity for ^125I was measured by counts per minute (cpm) while ^14C was measured by disintegrations per minute (dpm). […]
Injected dose percentages per ml of serum (%Inj/ml) were calculated by: […]
where Inj is dose of cpm administered and cpm/ml is the amount of radioactivity in one ml of serum. […]

[3] = mouse, in vivo, cited from earlier work
Text: Using ^125I labelled IRAs, we tested the ability of intravenously administered IRAs to cross the blood-brain barrier (BBB) in mice. […] The BBB is a functional interface between blood and brain that allows for regulated entry of circulating substrates.

[4] = in vivo; cited from earlier work
Method: IRAs are forms of these hormones modified to prolong their otherwise very short half-lives in plasma (less than 2 min).

With CC[C@H](C)[C@H](NC(=O)[C@H](Cc1ccccc1)NC(=O)[C@H](CCC(=O)O)NC(=O)[C@H](CCCCNC(=O)COCCOCCNC(=O)COCCOCCNC(=O)CC[C@H](NC(=O)CCCCCCCCCCCCCCCCC(=O)O)C(=O)O)NC(=O)[C@H](C)NC(=O)[C@H](C)NC(=O)[C@H](CCC(N)=O)NC(=O)CNC(=O)[C@H](CCC(=O)O)NC(=O)[C@H](CC(C)C)NC(=O)[C@H](Cc1ccc(O)cc1)NC(=O)[C@H](CO)NC(=O)[C@H](CO)NC(=O)[C@@H](NC(=O)[C@H](CC(=O)O)NC(=O)[C@H](CO)NC(=O)[C@@H](NC(=O)[C@H](Cc1ccccc1)NC(=O)[C@@H](NC(=O)CNC(=O)[C@H](CCC(=O)O)NC(=O)C(C)(C)NC(=O)[C@@H](N)Cc1cnc[nH]1)[C@@H](C)O)[C@@H](C)O)C(C)C)C(=O)N[C@@H](C)C(=O)N[C@@H](Cc1c[nH]c2ccccc12)C(=O)N[C@@H](CC(C)C)C(=O)N[C@H](C(=O)N[C@@H](CCCNC(=N)N)C(=O)NCC(=O)N[C@@H](CCCNC(=N)N)C(=O)NCC(=O)O)C(C)C [Semaglutide] the “Acid precipitation (AP%) olfactory bulb” value [1] was 100.9 ± 0.5%, the “Acid precipitation (AP%) serum” value [1] was 86.9 ± 1.1% and the “Acid precipitation (AP%) whole brain” value [1] was 74.7 ± 17.7%. The “Whole brain maximal uptake relative to the other IRAs” value [2] was “three-fold less uptake”, the “Rate of crossing the BBB after IV administration” value (“Rate of crossing the BBB” below) [3] was “undetectable within an hour” and the “Rate of whole brain uptake an hour after IV administration” value [3] was “undetectable”. For the same molecule, the “Time for brain detection after systemic administration” value [3] was “took hours for brain detection”.
For “dulaglutide (BAF): dulaglutide bioactive fragment, single IRA, 3315 Da, purchased from GLPBIO (catalog # GC31520); 125I-labelled”, the “Serum level following IN delivery” value [2] is given as “highest levels”, the “Sex difference in maximum uptake in hypothalamus” value [2] is given as “females having less uptake” and the “Rate of crossing the BBB” value [3] is given as “quickly”. For the same molecule, the “Rate of whole brain uptake an hour after IV administration” value [3] was “relatively high”.
For “liraglutide: incretin receptor agonist, cited BBB data”, the “Time for brain detection after systemic administration” value [3] is listed as “took hours for brain detection”.
In the case of glucagon-like peptide-1 [GLP-1], the Half-life in plasma [4] is given as “less than 2 min”.
For “tirzepatide: incretin receptor agonist, cited IV BBB data”, the “Rate of crossing the BBB” value [3] is listed as “undetectable within an hour”.
For “albiglutide: incretin receptor agonist, cited IV BBB data”, the “Rate of crossing the BBB” value [3] is given as “quickly”.
For “lixisenatide: incretin receptor agonist, cited IV BBB data”, the “Rate of crossing the BBB” value [3] is listed as “slow rates”.

— article PMC11293113, “Comparing regional brain uptake of incretin receptor agonists after intranasal delivery in CD-1 mice and the APP/PS1 mouse model of Alzheimer’s disease” (Alzheimer's Research & Therapy, 2024)
